In patent US11278600B2, “Human alpha-galactosidase variants” (Codexis, Inc., priority 2014, dated 2022):

B1: 69 (protein)
chain: LDNGLARTPTMGWLHWERFMCNLDCQEEPDSCISEKLFMEMAELMVSEGWKDAGYEYLCIDDCWMAPQRDSEGRLQADPQRFPHGIRQLANYVHSKGLKLGLYADVGNKTCAGFPGSFGYYDIDAQTFADWGVDLLKFDGCYCDSLENLADGYKHMSLALNRTGRSIVYSCEWPLYMWPFQKPNYTEIRQYCNHWRNFADIDDSWKSIKSILDWTSFNQERIVDVAGPGGWNDPDMLVIGNFGLSWNQQVTQMALWAIMAAPLFMSNDLRHISPQAKALLQDKDVIAINQDPLGKQGYQLRQGDNFEVWERPLSGLAWAVAMINRQEIGGPRSYTIAVASLGKGVACNPACFITQLLPVKRKLGFYEWTSRLRSHINPTGTVLLQLENTMQMSKDLLL
modifications: Synthetic Polypeptide sequence of Variant No. 69 of mature Human GLA
B2: 73 (protein)
chain: LDNGLARTPTMGWLHWERFMCNLDCQEEPDSCISEKLFMEMAELMVSEGWKDAGYEYLCIDDCWMAPQRDSEGRLQADPQRFPHGIRQLANYVHSKGLKLGIYADVGNKTCAGFPGSFGYYDIDAQTFADWGVDLLKFDGCYCDSLENLADGYKHMSLALNRTGRSIVYSCEWPLYMWPFQKPNYTEIRQYCNHWRNFADIDDSWASIKSILDWTSFNQERIVDVAGPGGWNDPDMLVIGNFGLSWNQQVTQMALWAIMAAPLFMSNDLRHISPQAKALLQDKDVIAINQDPLGKQGYQLRQGDNFEVWERPLSGLAWAVAMINRQEIGGPRSYTIAVASLGKGVACNPACFITQLLPVKRKLGFYEWTSRLRSHINPTGTVLLQLENTMQMSLKDLL
modifications: Synthetic Polypeptide sequence of Variant No. 73
B3: 70 (protein)
chain: LDNGLARTPTMGWLHWERFMCNLDCQEEPDSCISEKLFMEMAELMVSEGWKDAGYEYLCIDDCWMAPQRDSEGRLQADPQRFPHGIRQLANYVHSKGLKLGLYADVGNKTCAGFPGSFGYYDIDAQTFADWGVDLLKFDGCYCDSLENLADGYKHMSLALNRTGRSIVYSCEWPLYMWPFQKPNYTEIRQYCNHWRNFADIDDSWKSIKSILDWTSFNQERIVDVAGPGGWNDPDMLVIGNFGLSWNQQVTQMALWAIMAAPLFMSNDLRHISPQAKALLQDKDVIAINQDPLGKQGYQLRQGDNFEVWERPLSGLAWAVAMINRQEIGGPRSYTIAVASLGKGVACNPACFITQLLPVKRKLGFYEWTSRLRSHINPTGTVLLQLENTMQMSVDLLL
modifications: Synthetic Polypeptide sequence of Variant No. 70 of mature Human GLA
B4: 75 (protein)
chain: LDNGLARTPTMGWLHWERFMCNLDCQEEPDSCISEKLFMEMAELMVSEGWKDAGYEYLCIDDCWMAPQRDSEGRLQADPQRFPHGIRQLANYVHSKGLKLGIYADVGNKTCAGFPGSFGYYDIDAQTFADWGVDLLKFDGCYCDSLENLADGYKHMSLALNRTGRSIVYSCEWPLYMWPFQKPNYTEIRQYCNHWRNFADIDDSWQSIKSILDWTSFNQERIVDVAGPGGWNDPDMLVIGNFGLSWNQQVTQMALWAIMAAPLFMSNDLRHISPQAKALLQDKDVIAINQDPLGKQGYQLRQGDNFEVWERPLSGLAWAVAMINRQEIGGPRSYTIAVASLGKGVACNPACFITQLLPVKRKLGFYEWTSRLRSHINPTGTVLLQLENTMQMSKDLLL
modifications: Synthetic Polypeptide sequence of Variant No. 75 of mature Human GLA
B5: 76 (protein)
chain: LDNGLARTPTMGWLHWERFMCNLDCQEEPDSCISEKLFMEMAELMVSEGWKDAGYEYLCIDDCWMAPQRDSEGRLQADPQRFPHGIRQLANYVHSKGLKLGIYADVGNKTCAGFPGSFGYYDIDAQTFADWGVDLLKFDGCYCDSLENLADGYKHMSLALNRTGRSIVYSCEWPLYMWPFQKPNYTEIRQYCNHWRNFADIDDSWRSIKSILDWTSFNQERIVDVAGPGGWNDPDMLVIGNFGLSWNQQVTQMALWAIMAAPLFMSNDLRHISPQAKALLQDKDVIAINQDPLGKQGYQLRQGDNFEVWERPLSGLAWAVAMINRQEIGGPRSYTIAVASLGKGVACNPACFITQLLPVKRKLGFYEWTSRLRSHINPTGTVLLQLENTMQMSLKDLL
modifications: Synthetic Polypeptide sequence of Variant No. 76
B6: 72 (protein)
chain: LDNGLARTPTMGWLHWERFMCNLDCQEEPDSCISEKLFMEMAELMVSEGWKDAGYEYLCIDDCWMAPQRDSEGRLQADPQRFPHGIRQLANYVHSKGLKLGIYADVGNKTCAGFPGSFGYYDIDAQTFADWGVDLLKFDGCYCDSLENLADGYKHMSLALNRTGRSVVYSCEWPLYMWPFQKPNYTEIRQYCNHWRNFADIDDSWKSIKSILDWTSFNQERIVDVAGPGGWNDPDMLVIGNFGLSWNQQVTQMALWAIMAAPLFMSNDLRHISPQAKALLQDKDVIAINQDPLGKQGYQLRQGDNFEVWERPLSGLAWAVAMINRQEIGGPRSYTIAVASLGKGVACNPACFITQLLPVKRKLGFYEWTSRLRSHINPTGTVLLQLENTMQMSKDLLL
modifications: Synthetic Polypeptide sequence of Variant No. 72 of mature Human GLA
B7: 74 (protein)
chain: LDNGLARTPTMGWLHWERFMCNLDCQEEPDSCISEKLFMEMAELMVSEGWKDAGYEYLCIDDCWMAPQRDSEGRLQADPQRFPHGIRQLANYVHSKGLKLGIYADVGNKTCAGFPGSFGYYDIDAQTFADWGVDLLKFDGCYCDSLENLADGYKHMSLALNRTGRSIVYSCEWPLYMWPFQKPNYTEIRQYCNHWRNFADIDDSWMSIKSILDWTSFNQERIVDVAGPGGWNDPDMLVIGNFGLSWNQQVTQMALWAIMAAPLFMSNDLRHISPQAKALLQDKDVIAINQDPLGKQGYQLRQGDNFEVWERPLSGLAWAVAMINRQEIGGPRSYTIAVASLGKGVACNPACFITQLLPVKRKLGFYEWTSRLRSHINPTGTVLLQLENTMQMSKDLLL
modifications: Synthetic Polypeptide sequence of Variant No. 74 of mature Human GLA
B8: 71 (protein)
chain: LDNGLARTPTMGWLHWERFMCNLDCQEEPDSCISEKLFMEMAELMVSEGWKDAGYEYLCIDDCWMAPQRDSEGRLQADPQRFPHGIRQLANYVHSKGLKLGIYADVGNKTCAGFPGSFGYYDTDAQTFADWGVDLLKFDGCYCDSLENLADGYKHMSLALNRTGRSIVYSCEWPLYMWPFQKPNYTEIRQYCNHWRNFADIDDSWKSIKSILDWTSFNQERIVDVAGPGGWNDPDMLVIGNFGLSWNQQVTQMALWAIMAAPLFMSNDLRHISPQAKALLQDKDVIAINQDPLGKQGYQLRQGDNFEVWERPLSGLAWAVAMINRQEIGGPRSYTIAVASLGKGVACNPACFITQLLPVKRKLGFYEWNSRLRSHINPTGTVLLQLENTMQMSKDLLL
modifications: Synthetic Polypeptide sequence of Variant No. 71 of mature Human GLA

Tests used:
Assay type in all cases: biochemical
[1] = HTP-analysis of yeast culture supernatants, no challenge (MUGal hydrolysis); conditions: activity of the variant/activity of WT GLA (SEQ ID NO: 5), yeast supernatant
Summary of the method: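 GLA variants were expressed in INVSc1 yeast grown in SD-Ura broth with glucose at 30° C., and culture supernatants were collected after 66-84 h. Supernatant was mixed with McIlvaine buffer pH 4.8 and MUGal (2 mM stock) in 50 mM citrate, 200 mM KCl, pH 4.6, incubated at 37° C. for 30-180 minutes, then quenched with sodium carbonate.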

[2] = HTP-analysis of supernatants pretreated with acid (MUGal hydrolysis); conditions: challenge at pH 4.2; activity of the variant/activity of WT GLA (SEQ ID NO: 5); yeast supernatant
Summary of the method: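 Yeast INVSc1 supernatant, GLA variants; acid challenge: McIlvaine pH 3.3-4.3, 37° C., 1-3 h. Assay: MUGal in McIlvaine pH 4.8 plus citrate pH 4.3, 37° C., 30-180 min, Na2CO3 stop, Ex 355/Em 448 nm.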

[3] = HTP-analysis of supernatants pretreated with base (MUGal hydrolysis); conditions: challenge at pH 7.1; activity of the variant/activity of WT GLA (SEQ ID NO: 5); yeast supernatant
Summary of the method: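 Supernatants from INVSc1 yeast expressing GLA variants (SD-Ura, 66-84 h, 30° C) were mixed with McIlvaine buffer pH 7.0-8.2 or 200 mM sodium bicarbonate pH 9.1-9.7 and held 1-18 h at 37° C. Residual activity was then measured on MUGal at pH 4.8/4.3, 37° C, 30-180 min, by fluorescence (Ex 355/Em 448 nm).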

Molecule | Relative Activity of GLA Variants After No Challenge (NC) [1] | Relative Activity of GLA Variants After Challenge at pH 4.2 [2] | Relative Activity of GLA Variants After Challenge at pH 7.1 [3]
B1 | + (+ = 0.5 to 1.5 relative activity over WT GLA (SEQ ID NO: 5)) | + (+ = 0.5 to 1.5 relative activity over WT GLA (SEQ ID NO: 5)) | + (+ = 0.5 to 1.5 relative activity over WT GLA (SEQ ID NO: 5))
B2 | + (+ = 0.5 to 1.5 relative activity over WT GLA (SEQ ID NO: 5)) | +++ (+++ = >2.5 relative activity over WT GLA (SEQ ID NO: 5)) | ++ (++ = >1.5 to 2.5 relative activity over WT GLA (SEQ ID NO: 5))
B3 | + (+ = 0.5 to 1.5 relative activity over WT GLA (SEQ ID NO: 5)) | + (+ = 0.5 to 1.5 relative activity over WT GLA (SEQ ID NO: 5)) | + (+ = 0.5 to 1.5 relative activity over WT GLA (SEQ ID NO: 5))
B4 | + (+ = 0.5 to 1.5 relative activity over WT GLA (SEQ ID NO: 5)) | +++ (+++ = >2.5 relative activity over WT GLA (SEQ ID NO: 5)) | ++ (++ = >1.5 to 2.5 relative activity over WT GLA (SEQ ID NO: 5))
B5 | + (+ = 0.5 to 1.5 relative activity over WT GLA (SEQ ID NO: 5)) | +++ (+++ = >2.5 relative activity over WT GLA (SEQ ID NO: 5)) | ++ (++ = >1.5 to 2.5 relative activity over WT GLA (SEQ ID NO: 5))
B6 | + (+ = 0.5 to 1.5 relative activity over WT GLA (SEQ ID NO: 5)) | + (+ = 0.5 to 1.5 relative activity over WT GLA (SEQ ID NO: 5)) | + (+ = 0.5 to 1.5 relative activity over WT GLA (SEQ ID NO: 5))
B7 | + (+ = 0.5 to 1.5 relative activity over WT GLA (SEQ ID NO: 5)) | +++ (+++ = >2.5 relative activity over WT GLA (SEQ ID NO: 5)) | ++ (++ = >1.5 to 2.5 relative activity over WT GLA (SEQ ID NO: 5))
B8 | ++ (++ = >1.5 to 2.5 relative activity over WT GLA (SEQ ID NO: 5)) | + (+ = 0.5 to 1.5 relative activity over WT GLA (SEQ ID NO: 5)) | ++ (++ = >1.5 to 2.5 relative activity over WT GLA (SEQ ID NO: 5))
